These results are taken from patent US11660340B2, “Combination therapy using T cell redirection antigen binding molecule against cell having immunosuppressing function” (CHUGAI SEIYAKU KABUSHIKI KAISHA, priority 2015, dated 2023).

For assay [1], the system named is CT26.WT cells. Kind of assay: Combined use of mCTLA4/mCD3 and gemcitabine, CT26.WT cell-transplanted model. In kind it is in vivo. The settings on record: final measurement point; mCTLA4/mCD3 25 μg/mouse day 9, gemcitabine 120 mg/kg day 8, tail vein; n=5; FIG. 19. The procedure: BALB/cA mice and C57BL/6N mice were purchased from Charles River Laboratories Japan, Inc. The CT26.WT cells or the CT26/hGPC3 cells were transplanted subcutaneously to BALB/cA mice, and the LL/2 (LLC1) cells or the LLC1/hGPC3 cells were transplanted subcutaneously to C57BL/6N mice. Models were established when the average volume of the transplanted tumors reached approximately 100 mm^3 to 200 mm^3.
The volume of the transplanted tumor was calculated using the following equation: Tumor volume (mm^3)=major axis (mm)×minor axis (mm)×minor axis (mm)/2
As the pharmaceutical agents to be administered for the combined use test, the anti-mouse CTLA4/anti-mouse CD3 bispecific monoclonal antibody (mCTLA4/mCD3) was prepared at 0.125 mg/mL in PBS (−), and a pyrimidine analog (antimetabolite), gemcitabine (Gemzar: Eli Lilly Japan) was prepared at 12 mg/mL in physiological saline solution (Otsuka Pharmaceutical).
To evaluate the effects of combined use of the anti-mouse CTLA4/anti-mouse CD3 bispecific monoclonal antibody (mCTLA4/mCD3) and gemcitabine, the CT26.WT cell-transplanted model was used and given through the tail vein gemcitabine at 120 mg/kg eight days after transplantation and […] at 25 μg/mouse nine days after transplantation.
Antitumor effects were evaluated from the tumor volumes calculated using the equation shown in (2) of Example 1. […]

Assay [2] deals with T1, mFcgRI (Mus musculus, UniProt P26151).
T1 sequence (P26151 25-404): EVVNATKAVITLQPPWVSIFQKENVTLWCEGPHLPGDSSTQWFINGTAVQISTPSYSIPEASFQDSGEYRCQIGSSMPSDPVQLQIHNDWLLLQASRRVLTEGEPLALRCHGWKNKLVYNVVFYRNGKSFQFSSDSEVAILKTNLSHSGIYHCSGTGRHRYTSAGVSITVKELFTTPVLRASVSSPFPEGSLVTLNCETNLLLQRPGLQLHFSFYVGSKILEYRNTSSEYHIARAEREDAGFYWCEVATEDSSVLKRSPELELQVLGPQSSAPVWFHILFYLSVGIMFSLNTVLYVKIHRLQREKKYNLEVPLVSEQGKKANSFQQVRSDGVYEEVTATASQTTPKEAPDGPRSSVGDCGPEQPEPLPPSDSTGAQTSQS
Kind of assay: Biacore T200 binding of anti-mouse CTLA4 antibody to mouse FcgR. The settings on record: 1:1 binding RI = 0, 25° C., pH7.4. The procedure:
(§1) Anti-mouse CTLA4 antibody hUH02hUL01-mFa55 and control antibody hUH02hUL01-mIgG2a (the heavy chain variable region UH02 is SEQ ID NO: 28, the light chain variable region UL01 is SEQ ID NO: 29, the heavy chain constant region mIgG2a is SEQ ID NO: 32, and the light chain constant region mk1 is SEQ ID NO: 31) purified and prepared by the method of Reference Example 2-1 were analyzed for their antigen-antibody reactions with various mouse FcgRs (mFcgRI, II, III, and IV) using Biacore™ T200 (GE Healthcare). The running buffer used was 20 mmol/L ACES, 150 mmol/L NaCl, 0.05% (w/v) Tween®20 at pH7.4, and measurements were taken at 25° C. Protein A/G was immobilized onto a Sensor Chip CM7 by amine coupling. hUH02hUL01-mFa55 was captured onto the sensorchip, and then FcgR was allowed to interact as an analyte for 120 seconds, and change in the bound amount was observed. The running buffer was used for dilution of hUH02hUL01-mFa55. The measurement results were analyzed by curve fitting using the Biacore™ T200 Evaluation Software (GE Healthcare) to calculate the association rate constants ka (l/Ms) and the dissociation rate constants kd (l/s). From those values, the dissociation constants KD (M) were determined.

Assay [3] deals with T2, mFcgRII (Mus musculus, UniProt P08101).
T2 sequence (P08101 30-330): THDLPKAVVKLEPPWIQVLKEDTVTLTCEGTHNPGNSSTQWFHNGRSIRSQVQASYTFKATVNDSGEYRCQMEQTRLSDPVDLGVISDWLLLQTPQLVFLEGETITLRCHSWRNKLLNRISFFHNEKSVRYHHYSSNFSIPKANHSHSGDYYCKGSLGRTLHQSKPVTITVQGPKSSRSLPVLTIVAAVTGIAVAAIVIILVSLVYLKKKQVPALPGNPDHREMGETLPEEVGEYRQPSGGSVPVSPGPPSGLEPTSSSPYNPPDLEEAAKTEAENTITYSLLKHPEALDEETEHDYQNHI
The assay is described as above. The conditions noted are these: 1:1 binding RI = 0, 25° C., pH7.4. The procedure: as §1

Assay [4] deals with T3, mFcgRIII (Mus musculus, UniProt P08508).
T3 sequence (P08508 31-261): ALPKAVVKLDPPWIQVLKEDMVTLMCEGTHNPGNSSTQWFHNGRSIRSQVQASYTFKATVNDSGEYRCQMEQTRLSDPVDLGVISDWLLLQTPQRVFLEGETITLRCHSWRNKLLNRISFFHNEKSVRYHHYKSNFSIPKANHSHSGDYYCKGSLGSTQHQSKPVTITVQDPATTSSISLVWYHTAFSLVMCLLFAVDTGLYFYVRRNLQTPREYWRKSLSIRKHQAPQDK
Described as above. The settings on record: 1.1 binding RI = 0, 25° C., pH7.4. As for the experimental part: as §1

The target in assay [5] is T4, mFcgRIV (Mus musculus, UniProt A0A0B4J1G0).
T4 sequence (A0A0B4J1G0 21-249): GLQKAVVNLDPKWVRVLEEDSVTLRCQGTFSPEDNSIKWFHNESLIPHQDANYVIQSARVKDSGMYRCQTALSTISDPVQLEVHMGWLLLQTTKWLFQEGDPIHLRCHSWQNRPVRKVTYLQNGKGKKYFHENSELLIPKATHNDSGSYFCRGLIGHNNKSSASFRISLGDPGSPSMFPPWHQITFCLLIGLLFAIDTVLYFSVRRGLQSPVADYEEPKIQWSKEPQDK
The assay is described as above. The conditions noted are these: 1:1 binding RI = 0, 25° C., pH7.4. As for the experimental part:
as §1

Assay [6] relates to mouse CTLA4-expressing cells (CHO/mouse CTLA4 cells). Kind of assay: ADCC activity, chromium-release assay with mFcgR4-NK92 effector cells. In kind it is cell-based. The conditions noted are these: antibody 0, 0.04, 0.4, 4, 40 μg/ml, FIG. 5. The source says:
Whether anti-mouse CTLA4 antibody hUH02hUL01-mFa55 purified and prepared by the method of Reference Example 2-1 exerts ADCC activity on mouse CTLA4-expressing cells (mouse CTLA4-expressing cells were produced by a method known to those skilled in the art by introducing the full length mouse CTLA4 gene into CHO cells) was examined according to the method of Reference Example 11.
Regarding anti-mouse CTLA4 antibodies, antibody concentration-dependent ADCC activities of test antibodies were measured, using the mouse FcgR4-expressing human NK cell line NK-92 (hereinafter referred to as mFcgR4-NK92) as effector cells by following the method described below.
After washing mFcgR4-NK92 with RPMI-1640 (nacalai tesque) containing 10% FBS (hereinafter referred to as 10% FBS/RPMI), the cells were suspended in 10% FBS/RPMI at a cell density of 4×10^5 cells/ml. […]
The ADCC activities were evaluated from the specific chromium release rate according to the chromium release method. […] The radioactivity of 100 μl of culture supernatant in each well of the plate was measured using a gamma counter. The specific chromium release rate was determined based on the following equation. […] The examinations were performed in duplicate and the mean value for the specific chromium release rate (%) of the test antibody was calculated.

With `Nc1ccn([C@@H]2O[C@H](CO)[C@@H](O)C2(F)F)c(=O)n1` [gemcitabine], the “tumor volume vs. the PBS-administered group (Tukey multiple comparison test)” value in assay [1] was “significant differences (p<0.05)”.

B1: hUH02hUL01-mFa55: anti-mouse CTLA4 antibody, mouse IgG2a/kappa, constant region mFa55 modified to enhance binding to mouse FcγR (ADCC-enhanced) (antibody)
heavy: QVQLQESGPGLVKPSETLSLTCTVSGYSISSGYGWNWIRQPPGKGLEWIGFIYYEGSTYYNPSIKSRISITRDTSKNQFFLQVNSVTTEDTATYYCARQTGYFDYWGQGTLVTVSSAKTTAPSVYPLAPVCGDTTGSSVTLGCLVKGYFPEPVTLTWNSGSLSSGVHTFPAVLQSDLYTLSSSVTVTSSTWPSQSITCNVAHPASSTKVDKKIEPRGPTIKPCPPCKCPAPNLLGGPDVFIFPPKIKDVLMISLSPIVTCVVVDVSEDDPDVQISWFVNNVEVHTAQTQTHREDYNSTLRVVSALPIQHQDWMSGKEFKCKVNNKDLPAPIERTISKPKGSVRAPQVYVLPPPEEEMTKKQVTLTCMVTDFMPEDIYVEWTNNGKTELNYKNTEPVLDSDGSYFMYSKLRVEKKNWVERNSYSCSVVHEGLHNHHTTKSFSRTPGK
light: DIVMTQSPDSLAVSLGERATINCKSSQSLFNSNAKTNYLNWYQQKPGQPPKLLIYYASTRHTGVPDRFSGSGSGTDFTLTISSLQAEDVAVYYCQQWYDYPYTFGAGTKVEIKRADAAPTVSIFPPSSEQLTSGGASVVCFLNNFYPKDINVKWKIDGSERQNGVLNSWTDQDSKDSTYSMSSTLTLTKDEYERHNSYTCEATHKTSTSPIVKSFNRNEC
Take B1: the ka in assay [2] is 1.2e+06 M⁻¹ s⁻¹; in assay [3] it was 2.1e+06 M⁻¹ s⁻¹; in assay [4], 2.4e+06 M⁻¹ s⁻¹; in assay [5] it was 1.5e+06 M⁻¹ s⁻¹. In addition, the kd in assay [2] is 0.0031 s⁻¹; in assay [3] it was 0.76 s⁻¹; in assay [4], 0.62 s⁻¹; in assay [5], 0.0028 s⁻¹. Moreover, the “ADCC activity (specific chromium release rate)” value in assay [6] is recorded as “ADCC activity in an antibody concentration-dependent manner”.
